24 molecules from US20230272055A1 (Incyte, published 2023) can be followed below.

Residue numbers refer to the chain shown, from its start. Names and notes keep the numbering of the source.

To fix the notation:
T1: human mutCALR on BaF3 cells stably expressing human MPL and human mutCALR (MPL-mutCALR cells) (human)
T1 construct: also called mutant calreticulin
T1 chain: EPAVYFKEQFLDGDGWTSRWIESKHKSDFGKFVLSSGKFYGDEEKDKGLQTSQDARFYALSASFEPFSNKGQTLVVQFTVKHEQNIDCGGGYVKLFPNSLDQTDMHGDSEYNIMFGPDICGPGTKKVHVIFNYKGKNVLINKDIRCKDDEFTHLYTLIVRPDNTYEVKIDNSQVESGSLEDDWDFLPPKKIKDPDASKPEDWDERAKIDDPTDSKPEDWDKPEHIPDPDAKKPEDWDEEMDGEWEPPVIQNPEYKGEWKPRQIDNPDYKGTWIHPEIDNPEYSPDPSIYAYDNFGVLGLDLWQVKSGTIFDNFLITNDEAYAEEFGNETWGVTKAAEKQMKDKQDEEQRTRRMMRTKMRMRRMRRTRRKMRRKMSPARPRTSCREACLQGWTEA

B1: anti-mutCALR antibody clone 179 (antibody, human IgG1, lambda, N297A, V domains shown)
VH: EVQLVQSGAEVKKPGASVKVSCKVSGYTLTELSMQWVRQAPGKGLEWMGGFDPDDAETMYAEKFQGRLTVTEDTSTDTVYMELSSLRSEDTAVYFCATSPGYDFFDYWGQGTLVTVSS
VL: SYVLTQPPSVSVAPGQTARITCGGSDIGDEIVHWYQQKPGQAPVLVVYDDSDRPSGIPERFSGSNSGNTATLTISRAQAGDEADYYCQVWDSSSDHLIFGGGTKLTVLG
notes: human IgG1 N297A variant of clone 17
B2: anti-mutCALR antibody clone 70 (antibody, human IgG1, lambda, N297A, V domains shown)
VH: B1 VH with A56G
VL: SYVLTQPPSVSVAPGKTARITCTGTSSDVGGYNYVSWYQQKPGQAPVLVVYEVSNRPSGIPERFSGSNSGNTATLTISRVEAGDEADYYCQVWDSSNDLLIFGGGTKLTVLG
notes: human IgG1 N297A variant of clone 6
B3: anti-mutCALR antibody clone 178 (antibody, human IgG1, lambda, N297A, V domains shown)
VH: B1 VH with D55E, A56G
VL: B1 VL
notes: as for B1
B4: anti-mutCALR antibody clone 177 (antibody, human IgG1, lambda, N297A, V domains shown)
VH: B1 VH with D55S, A56G
VL: B1 VL
notes: as for B1
B5: anti-mutCALR antibody clone 176 (antibody, human IgG1, lambda, N297A, V domains shown)
VH: B1 VH with D55A, A56G
VL: B1 VL
B6: anti-mutCALR antibody clone 175 (antibody, human IgG1, lambda, N297A, V domains shown)
VH: B1 VH with A56G
VL: B1 VL
notes: as for B1
B7: anti-mutCALR antibody clone 73 (antibody, human IgG1, lambda, N297A, V domains shown)
VH: B1 VH with D55E, A56G
VL: B2 VL
notes: as for B2
B8: anti-mutCALR antibody clone 63 (antibody, human IgG1, lambda, N297A, V domains shown)
VH: B1 VH with D55E, A56G
VL: QSALTQPASVSGSPGQSITISCTGTSSDVGGYNYVSWYQQHPGKAPKLMIYEVSNRPSGVSNRFSGSNSGNTATLTINRVEAGDEADYYCQVWDSSNDLLIFGGGTKLTVLG
notes: as for B2
B9: anti-mutCALR antibody clone 64 (antibody, human IgG1, lambda, N297A, V domains shown)
VH: B1 VH
VL: B8 VL
notes: as for B2
B10: anti-mutCALR antibody clone 66 (antibody, human IgG1, lambda, N297A, V domains shown)
VH: B1 VH with D55A, A56G, S84R, R87T, V93L
VL: B2 VL
notes: as for B2
B11: anti-mutCALR antibody clone 71 (antibody, human IgG1, lambda, N297A, V domains shown)
VH: B1 VH with D55A, A56G
VL: B2 VL
notes: as for B2
B12: anti-mutCALR antibody clone 69 (antibody, human IgG1, lambda, N297A, V domains shown)
VH: B1 VH with S84R, R87T, V93L
VL: B2 VL
notes: as for B2
B13: anti-mutCALR antibody clone 72 (antibody, human IgG1, lambda, N297A, V domains shown)
VH: B1 VH with D55S, A56G
VL: B2 VL
notes: as for B2
B14: anti-mutCALR antibody clone 68 (antibody, human IgG1, lambda, N297A, V domains shown)
VH: B1 VH with D55E, A56G, S84R, R87T, V93L
VL: B2 VL
notes: as for B2
B15: anti-mutCALR antibody clone 67 (antibody, human IgG1, lambda, N297A, V domains shown)
VH: B1 VH with D55S, A56G, S84R, R87T, V93L
VL: B2 VL
notes: as for B2
B16: anti-mutCALR antibody clone 75 (antibody, human IgG1, lambda, N297A, V domains shown)
VH: B1 VH with A56G, S84R, R87T, V93L
VL: B1 VL with Q16K, S25N, D26N, D29S, E30K, I31S, A77V, Q78E, S94N, H96L
B17: anti-mutCALR antibody clone 79 (antibody, human IgG1, lambda, N297A, V domains shown)
VH: B1 VH with S84R, R87T, V93L
VL: B1 VL with Q16K, S25N, D26N, D29S, E30K, I31S, A77V, Q78E, S94N, H96L
B18: anti-mutCALR antibody clone 77 (antibody, human IgG1, lambda, N297A, V domains shown)
VH: B1 VH with D55S, A56G, S84R, R87T, V93L
VL: B1 VL with Q16K, S25N, D26N, D29S, E30K, I31S, A77V, Q78E, S94N, H96L
B19: anti-mutCALR antibody clone 78 (antibody, human IgG1, lambda, N297A, V domains shown)
VH: B1 VH with D55E, A56G, S84R, R87T, V93L
VL: B1 VL with Q16K, S25N, D26N, D29S, E30K, I31S, A77V, Q78E, S94N, H96L
B20: anti-mutCALR antibody clone 81 (antibody, human IgG1, lambda, N297A, V domains shown)
VH: B1 VH with D55A, A56G
VL: B1 VL with Q16K, S25N, D26N, D29S, E30K, I31S, A77V, Q78E, S94N, H96L
B21: anti-mutCALR antibody clone 76 (antibody, human IgG1, lambda, N297A, V domains shown)
VH: B1 VH with D55A, A56G, S84R, R87T, V93L
VL: B1 VL with Q16K, S25N, D26N, D29S, E30K, I31S, A77V, Q78E, S94N, H96L
B22: anti-mutCALR antibody clone 83 (antibody, human IgG1, lambda, N297A, V domains shown)
VH: B1 VH with D55E, A56G
VL: B1 VL with Q16K, S25N, D26N, D29S, E30K, I31S, A77V, Q78E, S94N, H96L
B23: anti-mutCALR antibody clone 82 (antibody, human IgG1, lambda, N297A, V domains shown)
VH: B1 VH with D55S, A56G
VL: B1 VL with Q16K, S25N, D26N, D29S, E30K, I31S, A77V, Q78E, S94N, H96L
B24: anti-mutCALR antibody clone 84 (antibody, human IgG1, lambda, N297A, V domains shown)
VH: B1 VH
VL: B1 VL with Q16K, S25N, D26N, D29S, E30K, I31S, A77V, Q78E, S94N, H96L

As a reminder, the Kd is the concentration at which binding is half-saturated. What is called koff is the first-order rate constant of dissociation. What is called kon is the second-order rate constant of association. A word on the EC50: it is the concentration at which the effect is half-maximal.

The target in the first test is T2, Recombinant MBP-mutCALR Type 1 fusion protein (human).
T2 construct: custom made at Cepter; also called recombinant mutCALR protein
The experiment in a line: SPR, IgG captured, 1:1 fit, Exp. 2. Put shortly:
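Antibodies captured via amine-coupled anti-human IgG (Fc) on a CM4 chip; recombinant MBP-mutCALR Type 1 fusion protein as analyte. Run at 25 °C in Tris-buffered saline pH 7.2, 0.005% P20, 1 mM CaCl₂. Multiple-cycle kinetics fitted to a 1:1 binding model.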
Background: Surface plasmon resonance follows binding to a sensor surface in real time, without labels.
Consider B1, for which the Kd came to 0.455 nM, the koff is 0.00681 s⁻¹ and the kon was 1e+07 M⁻¹ s⁻¹.

With B2, the Kd came out at 0.966 nM, the koff is 0.000953 s⁻¹ and the on-rate constant (kon) was found to be 987000 M⁻¹ s⁻¹.

Take B3: the Kd stood at 1.21 nM, the koff turned out to be 0.00123 s⁻¹ and the kon is 1.02e+06 M⁻¹ s⁻¹.

Consider B4, for which the equilibrium dissociation constant (Kd) turned out to be 1.49 nM, the koff worked out at 0.00549 s⁻¹ and the kon was determined as 3.7e+06 M⁻¹ s⁻¹.

As for B5, the Kd is 2.8 nM, the koff was 0.00278 s⁻¹ and the on-rate constant (kon) came to 994000 M⁻¹ s⁻¹.

Turning to B6, the dissociation constant Kd is 1.39 nM, the off-rate (koff) came to 0.00631 s⁻¹ and the kon worked out at 4.53e+06 M⁻¹ s⁻¹.

On to B7, for which the Kd was 0.76 nM, the koff amounted to 0.00546 s⁻¹ and the on-rate (kon) amounted to 7.18e+06 M⁻¹ s⁻¹.

As to B8, the dissociation constant (Kd) was found to be 0.244 nM, the koff was 0.000691 s⁻¹ and the kon was determined as 2.83e+06 M⁻¹ s⁻¹.

In the case of B9, the Kd turned out to be 0.638 nM, the koff stood at 0.00248 s⁻¹ and the on-rate constant (kon) is 3.89e+06 M⁻¹ s⁻¹.

With B10, the Kd was determined as 2.36 nM, the koff worked out at 0.00836 s⁻¹ and the kon was determined as 3.54e+06 M⁻¹ s⁻¹.

For the molecule B11, the Kd was 2.31 nM, the koff was 0.0107 s⁻¹ and the on-rate constant (kon) amounted to 4.63e+06 M⁻¹ s⁻¹.

For the molecule B12, the Kd stood at 0.53 nM, the koff is 0.00527 s⁻¹ and the kon was found to be 9.94e+06 M⁻¹ s⁻¹.

Consider B13, for which the equilibrium dissociation constant (Kd) was determined as 3.74 nM, the koff came out at 0.00382 s⁻¹ and the kon came out at 1.02e+06 M⁻¹ s⁻¹.

B14: the Kd worked out at 1.15 nM, the koff stood at 0.00166 s⁻¹ and the kon turned out to be 1.44e+06 M⁻¹ s⁻¹.

Consider B15, for which the Kd came to 3.34 nM, the koff came to 0.0102 s⁻¹ and the kon was 3.05e+06 M⁻¹ s⁻¹.

The target in the next test is T1, human mutCALR on BaF3 cells stably …. In words: flow cytometry, BaF3 MPL-mutCALR cells. Here is the method:
On the day of the assay, cells were washed and resuspended in assay buffer. Approximately 200,000 cells/well were added to 96-well plates and stained with the indicated concentration of antibodies for 30 minutes on ice. Cells were then washed and stained with goat anti-human secondary conjugated to R-phycoerythrin (R-PE) (Jackson Immuno Research Laboratories) for 30 minutes on ice. The cells were then washed and analyzed by flow cytometry.
Consider B16, for which the “MPL-mutCALR AUC” value amounted to 84900.

For the molecule B17, the EC50 is 3.3 ng/mL and the “MPL-mutCALR AUC” value was determined as 71900.

Take B18: the EC50 came out at 6.7 ng/mL and the “MPL-mutCALR AUC” value came out at 54200.

Regarding B19, the EC50 came to 5.5 ng/mL and the “MPL-mutCALR AUC” value came out at 64300.

In the case of B20, the EC50 turned out to be 8.2 ng/mL and the “MPL-mutCALR AUC” value was 52900.

Regarding B21, the EC50 is 8.2 ng/mL and the “MPL-mutCALR AUC” value came out at 55100.

Turning to B22, a half-maximal response (EC50) required 3.4 ng/mL and the “MPL-mutCALR AUC” value stood at 62800.

With B23, the half-maximal effective concentration (EC50) stood at 4.8 ng/mL and the “MPL-mutCALR AUC” value turned out to be 50200.

Take B24: a half-maximal response (EC50) required 2.9 ng/mL and the “MPL-mutCALR AUC” value turned out to be 82400.
